Assays:
[1] = molecular target: HLA-DQ1 (DQA1*0102, DQB1*0502) loaded with the myelin basic protein peptide (res. 85–99) (human); assay: SPR
[2] = molecular target: HLA-DQ1 (DQA1*0102, DQB1*0502), supplied as DQ1/CLIP for peptide-binding assays (human); assay: ELISA
[3] = molecular target: Hy.1B11 TCR with biotinylated C-terminal BirA tag (human); assay: SPR

| Substance | Kd [3] | also measured |
| --- | --- | --- |
| Hy.1B11 T cell receptor (TCR), wild type, soluble |  | Kd [1]: 14.3 µM |
| MBP 85–99 analogue peptide with P6 Asn to Asp substitution |  | fold higher affinity than the WT MBP peptide [2]: 10 fold |
| HLA-DQ1 (DQA1*0102, DQB1*0502) loaded with the myelin basic protein peptide (res. 85–99) (peptide-MHC) | 6.96 µM |  |
| HLA-DQ1 (DQA1*0102, DQB1*0502) loaded with the Pseudomonas aeruginosa phosphomannomutase peptide PMM 260–274 (from UniProt P26276 260-274) (peptide-MHC) | 57.3 µM |  |

From article PMC4193804
